Measured values: patent publication US20220259593A1, “CONTROL OF MAMMALIAN GENE DOSAGE USING CRISPR” (The Regents of the University of California, priority 2019, published 2022)
Numbering of substitutions follows the chain as printed.

B1: cr603 (nucleic acid)
guide: GTTTAAGAGCTAAGCTGGAAACAGCATAGCAAGTTTAAATAAGGCTAGTCCGTTATCAACTTGAGCAAGTGGCACCGAGTCGGTGCT
modifications: listed as DNA, chemistry not fully specified
B2: cr283 (nucleic acid)
guide: B1 guide with G65A, C66A, G72A
modifications: listed as DNA, chemistry not fully specified
B3: cr592 (nucleic acid)
guide: B1 guide with C45T, G48A, G65A, C66A
modifications: listed as DNA, chemistry not fully specified
B4: cr354 (nucleic acid)
guide: B1 guide with A59G, G65A, C66A, T70C, G72A, C73T, G85A, C86T
modifications: listed as DNA, chemistry not fully specified
B5: cr018 (nucleic acid)
guide: B1 guide with G7A, G65A, C66A
modifications: listed as DNA, chemistry not fully specified
B6: cr464 (nucleic acid)
guide: B1 guide with A59C, G65A, C66A, T70G, G77A, C81T
modifications: listed as DNA, chemistry not fully specified
B7: cr642 (nucleic acid)
guide: B1 guide with A32T, G65A, C66A
modifications: listed as DNA, chemistry not fully specified
B8: cr557 (nucleic acid)
guide: B1 guide with A19C, G65A, C66A
modifications: listed as DNA, chemistry not fully specified
B9: cr433 (nucleic acid)
guide: B1 guide with G65A, C66T
modifications: listed as DNA, chemistry not fully specified
B10: cr302 (nucleic acid)
guide: B1 guide with T61G, G65A, C66A, A68C, C73T, A74C, T84G, G85A
modifications: listed as DNA, chemistry not fully specified
B11: cr423 (nucleic acid)
guide: B1 guide with A59G, G65A, C66A, T70C, C73T, G85A
modifications: listed as DNA, chemistry not fully specified
B12: cr701 (nucleic acid)
guide: B1 guide with G65A, C66A, G79C
modifications: listed as DNA, chemistry not fully specified
B13: cr898 (nucleic acid)
guide: B1 guide with A32C, C66A
modifications: listed as DNA, chemistry not fully specified
B14: cr366 (nucleic acid)
guide: B1 guide with A59G, G65A, C66A, T70C, C76T, G82A
modifications: listed as DNA, chemistry not fully specified
B15: cr690 (nucleic acid)
guide: B1 guide with T27G, G65A, C66A
modifications: listed as DNA, chemistry not fully specified
B16: cr121 (nucleic acid)
guide: B1 guide with A59T, T61A, G65A, C66A, A68T, T70A
modifications: listed as DNA, chemistry not fully specified
B17: cr619 (nucleic acid)
guide: B1 guide with A64G, G65A, C66A
modifications: listed as DNA, chemistry not fully specified
B18: cr980 (nucleic acid)
guide: B1 guide with T53C, G65A, C66A
modifications: listed as DNA, chemistry not fully specified
B19: cr428 (nucleic acid)
guide: B1 guide with A64C, G65A, C66T
modifications: listed as DNA, chemistry not fully specified
B20: cr239 (nucleic acid)
guide: B1 guide with T53C, A64T, G65A, C66A
modifications: listed as DNA, chemistry not fully specified
B21: cr971 (nucleic acid)
guide: B1 guide with G63A, G65T, C66A
modifications: listed as DNA, chemistry not fully specified
B22: cr377 (nucleic acid)
guide: B1 guide with T56G, G65A, C66A
modifications: listed as DNA, chemistry not fully specified
B23: cr941 (nucleic acid)
guide: B1 guide with C60A, T62G, G65A, C66A, A67C, G69T, G72A, C86T
modifications: listed as DNA, chemistry not fully specified
B24: cr037 (nucleic acid)
guide: B1 guide with G7T, A8C, G65A, C66A
modifications: listed as DNA, chemistry not fully specified
B25: cr234 (nucleic acid)
guide: B1 guide with T62C, G65A, C66A
modifications: listed as DNA, chemistry not fully specified
B26: cr494 (nucleic acid)
guide: B1 guide with G65A, C66A, A67T
modifications: listed as DNA, chemistry not fully specified
B27: cr820 (nucleic acid)
guide: B1 guide with T62G, C66A, A67C
modifications: listed as DNA, chemistry not fully specified
B28: cr655 (nucleic acid)
guide: B1 guide with T54C, G65A, C66A
modifications: listed as DNA, chemistry not fully specified
B29: cr715 (nucleic acid)
guide: B1 guide with A31G, G65A, C66A
modifications: listed as DNA, chemistry not fully specified
B30: cr113 (nucleic acid)
guide: B1 guide with A55T, G65A, C66A
modifications: listed as DNA, chemistry not fully specified

System: K562 CRISPRi cells
Experiment: Constant region variant library pooled growth screen, K562
Format: cell-based, human
Conditions: sgRNA constant region variants
How it was run: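 Library of sgRNA constant-region variants, each paired with 36 targeting sequences (essential-gene and non-targeting), transduced in duplicate into K562 CRISPRi cells, puromycin-selected and grown 4–8 days at >2000× coverage. Activity per variant is its growth phenotype normalised to the same targeting sequence with unmodified constant region.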

[1] = relative to the original, un-modified constant region cr995 (= 1)
[2] = activity relative to the original, un-modified constant region cr995

Row | Molecule | Mean relative activity [1] | Mean relative activity [2]
1 | B1 | 1.018 | –
2 | B2 | 1 .01760152 | –
3 | B3 | 1.017 | –
4 | B4 | 1.016 | –
5 | B5 | 1.017 | –
6 | B6 | 1.017 | –
7 | B7 | 1.008 | –
8 | B8 | 1.018 | –
9 | B9 | 1.012 | –
10 | B10 | 1.016 | –
11 | B11 | 1.012 | –
12 | B12 | 1.016 | –
13 | B13 | 1.014 | –
14 | B14 | 1.017 | –
15 | B15 | 1.011 | –
16 | B16 | 1.014 | –
17 | B17 | 1.015 | –
18 | B18 | 1.014 | –
19 | B19 | 1.013 | –
20 | B20 | 1.014 | –
21 | B21 | 1.017 | –
22 | B22 | 1.012 | –
23 | B23 | 1.016 | –
24 | B24 | 1.01 | –
25 | B25 | – | 1.075
26 | B26 | 1.016 | –
27 | B27 | – | 1.072
28 | B28 | 1.016 | –
29 | B29 | 1.008 | –
30 | B30 | 1.016 | –
